According to patent publication US20200131257A1 (YALE UNIVERSITY, published 2020):
Values joined by “and” are separate entries in the source; they are usually repeats but may differ in a detail not shown here. Equal values may be shown once. Read-outs that look alike come from different tables or passages of the source. No end group written: not given here.

How the values were obtained:
[1] = molecular target: extracellular domain of human β-Klotho (sKLB) (human) (UniProt Q86Z14); assay: MST competition; GST-FGF21CT variant titrated into a constant sKLB/fl-FGF21 mixture
[2] = molecular target: T1, extracellular domain of human β-Klotho (sKLB) (human, UniProt Q86Z14 53-983); assay: MST competition; GST-FGF21CT titrated into a constant sKLB/fl-FGF21 mixture
T1 construct: Made in HEK293-EBNA cells; also called WT sKLB; not shown: remnant of the TEV protease cleavage site / four-Gly linker left after the Fc tag was cut off
T1 sequence: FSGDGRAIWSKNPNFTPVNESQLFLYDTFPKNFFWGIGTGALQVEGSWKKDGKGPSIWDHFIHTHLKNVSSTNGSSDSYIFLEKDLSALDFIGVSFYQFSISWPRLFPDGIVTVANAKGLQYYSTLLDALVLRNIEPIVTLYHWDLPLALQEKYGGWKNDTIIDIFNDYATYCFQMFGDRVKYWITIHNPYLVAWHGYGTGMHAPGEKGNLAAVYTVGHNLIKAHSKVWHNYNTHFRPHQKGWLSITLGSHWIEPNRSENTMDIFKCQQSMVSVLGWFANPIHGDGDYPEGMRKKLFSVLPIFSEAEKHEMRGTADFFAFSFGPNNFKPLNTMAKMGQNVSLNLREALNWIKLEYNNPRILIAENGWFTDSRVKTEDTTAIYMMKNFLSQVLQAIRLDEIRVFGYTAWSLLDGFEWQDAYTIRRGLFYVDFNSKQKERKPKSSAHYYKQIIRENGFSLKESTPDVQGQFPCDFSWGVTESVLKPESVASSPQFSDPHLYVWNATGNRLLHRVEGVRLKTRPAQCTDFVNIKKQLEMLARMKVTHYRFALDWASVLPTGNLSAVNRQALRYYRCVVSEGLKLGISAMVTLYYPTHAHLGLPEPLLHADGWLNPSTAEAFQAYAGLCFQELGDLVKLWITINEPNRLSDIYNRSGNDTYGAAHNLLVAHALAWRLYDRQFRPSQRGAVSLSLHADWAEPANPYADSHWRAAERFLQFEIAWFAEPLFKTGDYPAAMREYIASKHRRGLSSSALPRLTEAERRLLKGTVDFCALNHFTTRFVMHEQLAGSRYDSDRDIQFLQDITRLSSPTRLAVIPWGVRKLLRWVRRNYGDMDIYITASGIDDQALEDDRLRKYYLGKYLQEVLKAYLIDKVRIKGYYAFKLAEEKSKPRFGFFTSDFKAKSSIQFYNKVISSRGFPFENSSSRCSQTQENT
Description: (§1) All MST measurements were performed using the Monolith NT.115Pico instrument (NanoTemper Technologies) with Monolith NT.115 MST Premium Coated Capillaries. Purified FGF21 was fluorescently labeled using the Monolith Protein Labeling Kit RED-NHS (NanoTemper Technologies) according to the instruction provided by the manufacturer. […] The thermophoretic movements of fl-FGF21 in each samples were monitored (LED 20%, IR laser 20%,) and the normalized fluorescence intensities (FNorm), defined as Fₕₒₜ/Fcold (where Fcold and Fₕₒₜ refer to the fluorescence intensities averaged over […] before IR laser is on and 29 s after IR laser is on, respectively), for each samples were plotted against the concentrations of sKLB. For the competition assays, the thermophoresis of fl-FGF21 was measured for samples where the concentration of fl-FGF21 and sKLB mixture was kept constant with the concentrations of GST-FGF21CT varying from 2.1 nM to 35000 nM. All the data were analyzed with the MO Affinity Analysis software (NanoTemper Technologies) provided by the manufacturer.
(§2) To measure binding of the C-terminal fragment of FGF21 (FGF21CT) to sKLB, an MST-based competition assay was used, in which GST-fused FGF21CT (GST-FGF21CT) was titrated into a constant sKLB/fl-FGF21 mixture (FIG. 6C).

[3] = molecular target: T1, extracellular domain of human β-Klotho …; assay: SPR; GST-FGF21CT immobilized on a sensor chip using anti-GST, sKLB in solution
[4] = molecular target: T1, extracellular domain of human β-Klotho …; assay: MST competition: GST-FGF21CT titrated into a constant mixture of sKLB and fluorescently labelled FGF21 (competitor: fl-FGF21)
Description: as §1, §2

[5] = molecular target: T1, extracellular domain of human β-Klotho …; assay: as above; remark: listed apart in the source
Description: as §1, §2

[6] = molecular target: T1, extracellular domain of human β-Klotho …; assay: quantitative binding studies, method not given
[7] = molecular target: T1, extracellular domain of human β-Klotho …; assay: SPR and/or MST
[8] = molecular target: T1, extracellular domain of human β-Klotho …; assay: MST; fluorescently labeled FGFR1cD2D3
β-Klotho lacking D2 = molecular target: T2, β-Klotho lacking D2 (human, UniProt Q86Z14 53-507); assay: SPR and/or MST
T2 sequence: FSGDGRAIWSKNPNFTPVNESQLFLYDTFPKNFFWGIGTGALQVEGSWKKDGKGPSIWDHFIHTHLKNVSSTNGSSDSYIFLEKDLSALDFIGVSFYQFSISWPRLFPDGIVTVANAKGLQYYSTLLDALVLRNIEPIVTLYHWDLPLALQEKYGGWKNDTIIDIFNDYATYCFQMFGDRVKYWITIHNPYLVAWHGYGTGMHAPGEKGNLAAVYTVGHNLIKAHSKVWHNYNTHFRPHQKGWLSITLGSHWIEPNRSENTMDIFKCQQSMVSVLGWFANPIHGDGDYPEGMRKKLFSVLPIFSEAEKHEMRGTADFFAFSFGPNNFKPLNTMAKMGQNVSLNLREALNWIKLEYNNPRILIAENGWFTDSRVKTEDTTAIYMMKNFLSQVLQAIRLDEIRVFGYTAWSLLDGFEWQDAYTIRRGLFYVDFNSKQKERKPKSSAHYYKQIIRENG

[9] = molecular target: T1, extracellular domain of human β-Klotho …; assay: MST; 35 nM fluorescently labeled FGF21, sKLB titrated 0.03-1000 nM
Description: as §1
The affinity of FGF21 for sKLB was measured using MicroScale Thermophoresis or MST (Seidel et al., 2013, methods 59:301-315), where the thermophoretic movement of fluorescently-labeled FGF21 (fl-FGF21) in solution is monitored upon sKLB binding.

[10] = molecular target: T1, extracellular domain of human β-Klotho …; assay: MST
Description: The thermophoretic movements of fl-FGF21 in each samples were monitored (LED 20%, IR laser 20%,) and the normalized fluorescence intensities (FNorm), defined as Fₕₒₜ/Fcold (where Fcold and Fₕₒₜ refer to the fluorescence intensities averaged over […] before IR laser is on and 29 s after IR laser is on, respectively), for each samples were plotted against the concentrations of sKLB. For the competition assays, the thermophoresis of fl-FGF21 was measured for samples where the concentration of fl-FGF21 and sKLB mixture was kept constant with the concentrations of GST-FGF21CT varying from 2.1 nM to 35000 nM. All the data were analyzed with the MO Affinity Analysis software (NanoTemper Technologies) provided by the manufacturer.
As endocrine FGFs play important roles in the control of metabolic processes, a variety of approaches have been utilized to develop novel therapeutics that retain (and exceed in potency) the beneficial stimulatory responses of FGF19 and or FGF21 while minimizing the side effects caused by these two hormones. […] In certain non-limiting embodiments, potency of FGF21 can be enhanced by introducing mutations into its C-terminal tail that strengthen interactions with β-Klotho. An L194F mutation was introduced to increase hydrophobic interactions with neighboring amino acids in site 1 of β-Klotho. […]

[11] = molecular target: T3, full-length human β-Klotho (KLB), C-terminal HA-tagged, on L6 cells (human, UniProt Q86Z14 53-1044); assay: cell-based or functional assay
T3 sequence: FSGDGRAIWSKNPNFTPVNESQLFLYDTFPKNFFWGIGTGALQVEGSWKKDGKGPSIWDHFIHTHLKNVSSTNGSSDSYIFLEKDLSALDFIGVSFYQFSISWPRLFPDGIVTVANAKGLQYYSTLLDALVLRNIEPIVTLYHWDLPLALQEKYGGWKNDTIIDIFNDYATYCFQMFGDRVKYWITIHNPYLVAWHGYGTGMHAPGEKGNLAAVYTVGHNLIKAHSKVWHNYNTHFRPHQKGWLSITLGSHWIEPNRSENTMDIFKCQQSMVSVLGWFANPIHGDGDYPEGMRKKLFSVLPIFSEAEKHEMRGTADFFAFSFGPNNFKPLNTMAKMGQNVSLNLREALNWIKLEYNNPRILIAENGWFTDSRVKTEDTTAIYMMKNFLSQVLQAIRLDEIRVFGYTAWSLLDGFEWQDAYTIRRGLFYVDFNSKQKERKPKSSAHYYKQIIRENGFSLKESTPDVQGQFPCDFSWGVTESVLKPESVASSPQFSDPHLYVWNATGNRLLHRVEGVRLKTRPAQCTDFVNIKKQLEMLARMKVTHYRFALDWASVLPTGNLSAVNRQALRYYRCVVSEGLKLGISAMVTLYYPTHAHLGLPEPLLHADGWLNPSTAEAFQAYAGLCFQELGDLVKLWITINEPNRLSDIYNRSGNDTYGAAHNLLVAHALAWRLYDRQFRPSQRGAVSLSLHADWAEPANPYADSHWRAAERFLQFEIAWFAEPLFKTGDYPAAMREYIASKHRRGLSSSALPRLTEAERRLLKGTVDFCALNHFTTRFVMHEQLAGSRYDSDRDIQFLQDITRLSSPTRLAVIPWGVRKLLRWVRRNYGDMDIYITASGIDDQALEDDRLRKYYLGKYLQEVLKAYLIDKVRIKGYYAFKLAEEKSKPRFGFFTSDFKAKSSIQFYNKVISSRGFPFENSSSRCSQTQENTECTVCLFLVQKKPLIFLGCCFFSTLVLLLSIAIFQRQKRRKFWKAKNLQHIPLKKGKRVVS

GST-FGF21CT D192A (from UniProt Q9NSA1 169-209)
IC50 [1]: 15900 nM

GST-FGF21CT S206A (from UniProt Q9NSA1 169-209)
IC50 [1]: 5560 nM

GST-FGF21CT S204A (from UniProt Q9NSA1 169-209)
IC50 [1]: 5990 nM

GST-FGF21CT Y207A (from UniProt Q9NSA1 169-209)
IC50 [1]: 6630 nM

GST-FGF21CT P193A (from UniProt Q9NSA1 169-209)
IC50 [1]: 7160 nM

B1: GST-fused FGF21CT (GST-FGF21CT), wild type (other)
chain: GLPPALPEPPGILAPQPPDVGSSDPLSMVGPSQGRSPSYAS
modifications: not fully specified (N-terminus); also: fused to GST tag, letters not given here
notes: also called WT; not shown: glutathione S-transferase tag and linker encoded by the pGEX-4T-1 vector (GE Healthcare)
IC50 [2]: 704 nM | Kd [3]: 253 nM | IC50 (read off the curve) [4]: ~700 nM | IC50 (read off the curve) [5]: ~700 nM

B2: FGF21CT synthetic peptide (C-terminal region of FGF21, residues 174-209 with P199G and A208E) (peptide)
peptide: LPEPPGILAPQPPDVGSSDPLSMVGGSQGRSPSYES
notes: also called FGF21CT peptide
Kd [6]: 43 nM

B3: FGF21 lacking the 10 C-terminal amino acids (ligand)
chain: HPIPDSSPLLQFGGQVRQRYLYTDDAQQTEAHLEIREDGTVGGAADQSPESLLQLKALKPGVIQILGVKTSRFLCQRPDGALYGSLHFDPEACSFRELLLEDGYNVYQSEAHGLPLHLPGNKSPHRDPAPRGPARFLPLPGLPPALPEPPGILAPQPPDVGSSDPLSMVGP
binding result [7]: no binding

B4: FGFR1cD2D3 (ligand binding region of FGFR1c) (receptor, UniProt P11362 142-365, looked up)
chain: DNTKPNRMPVAPYWTSPEKMEKKLHAVPAAKTVKFKCPSSGTPNPTLRWLKNGKEFKPDHRIGGYKVRYATWSIIMDSVVPSDKGNYTCIVENEYGSINHTYQLDVVERSPHRPILQAGLPANKTVALGSNVEFMCKVYSDPQPHIQWLKHIEVNGSKIGPDNLPYVQILKTAGVNTTDKEMEVLHLRNVSFEDAGEYTCLAGNSIGLSHHSAWLTVLEALEER
modifications: fluorescently labeled in the MST assay
notes: domain: D2D3; the c splice form of FGFR1; also called FGFR1cD2D3 extracellular region
Kd [8]: 940 nM and ~1000 nM

B5: recombinant human FGF21 (amino acids 29-209 with L126R, P199G and A208E, N-terminal His6 tag) (ligand)
chain: HPIPDSSPLLQFGGQVRQRYLYTDDAQQTEAHLEIREDGTVGGAADQSPESLLQLKALKPGVIQILGVKTSRFLCQRPDGALYGSLHFDPEACSFRERLLEDGYNVYQSEAHGLPLHLPGNKSPHRDPAPRGPARFLPLPGLPPALPEPPGILAPQPPDVGSSDPLSMVGGSQGRSPSYES
modifications: fluorescently labeled with Monolith Protein Labeling Kit RED-NHS (fl-FGF21) in the MST assays
notes: Expressed in E. coli; also called fl-FGF21; wild-type FGF21; not shown: N-terminal His6 tag from the pET28a vector
binding result (β-Klotho lacking D2): no binding | Kd [9]: 43.5 nM

B6: R203W/L194F-mutated FGF21 (FGF21WF) (ligand)
chain: HPIPDSSPLLQFGGQVRQRYLYTDDAQQTEAHLEIREDGTVGGAADQSPESLLQLKALKPGVIQILGVKTSRFLCQRPDGALYGSLHFDPEACSFRELLLEDGYNVYQSEAHGLPLHLPGNKSPHRDPAPRGPARFLPLPGLPPALPEPPGILAPQPPDVGSSDPFSMVGPSQGWSPSYAS
notes: also called FGF21 carrying a double L194F/R203W mutations
Kd [10]: 3.4 nM | fold tighter binding than wild-type FGF21 [10]: > 10 fold | stimulation of FGFR1c tyrosine phosphorylation in L6 cells coexpressing β-Klotho and FGFR1c [11]: ~10 fold
